Assay results as given in patent US11248023B2 (NEURACLE SCIENCE CO., LTD., priority 2015, dated 2022).
Square brackets hold non-standard residues; d marks the D form. Ends that are not written are not given here. Peptide text beside a SMILES is read from it. * marks the point of attachment. Fmoc = O=C(OCC1c2ccccc2-c2ccccc21)*

Columns and labels:
[1] = biological target: T1, GALR2 (Homo sapiens, UniProt O43603); experiment: SRE-luc assay in HEK293-Gqi cells expressing GALR2; format: cell-based; conditions: for potency toward GALR2: SRE-luc, HEK293-Gqi cells, compared with spexin
T1 construct: expressed in transfected cells
T1 sequence (O43603 1-387): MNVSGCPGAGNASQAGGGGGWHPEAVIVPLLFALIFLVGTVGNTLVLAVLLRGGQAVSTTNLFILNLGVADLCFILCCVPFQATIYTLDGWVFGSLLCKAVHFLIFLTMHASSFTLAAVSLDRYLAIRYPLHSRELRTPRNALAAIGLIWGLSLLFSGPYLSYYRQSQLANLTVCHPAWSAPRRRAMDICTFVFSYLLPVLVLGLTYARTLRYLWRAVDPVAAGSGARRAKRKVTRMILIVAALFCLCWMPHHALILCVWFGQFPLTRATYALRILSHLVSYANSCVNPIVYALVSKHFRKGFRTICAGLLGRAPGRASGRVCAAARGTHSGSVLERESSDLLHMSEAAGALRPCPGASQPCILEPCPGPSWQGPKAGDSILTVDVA
From the text: (§1) The HEK293-Gqi stable cell line is a cell line in which the C-terminus of Gq is substituted with 3 amino acids of G to convert the signals of G to Gq signaling pathways. […] GALR subtypes 1 and 3 induce inhibitory G-coupled signaling, while GALR subtype 2 triggers stimulatory Gq-coupled signaling. This difference explains the use of the HEK293-Gqi stable cell line in which the C-terminus of Gq is substituted with 3 amino acids of G to convert the signals of Gi to Gq signaling pathways.
(§2) GALR subtypes 1 and 3 induce inhibitory G-coupled signaling, while GALR subtype 2 triggers stimulatory Gq-coupled signaling. This difference explains the use of the HEK293-Gqi stable cell line in which the C-terminus of Gq is substituted with 3 amino acids of G to convert the signals of G to Gq signaling pathways. The activities of the receptors were measured using an SRE-luc assay system designed to express luciferase (luc) by serum responsive element (SRE) promoters. Light caused by a reaction between expressed luciferase and luciferin as a substrate was detected using a luminometer so that receptor subtype-specific or ligand-specific cellular activities were observed. One day after HEK293-Gqi cells were seeded in 48-well plates at a density of 2×10^4 cells/well, plasmid DNA and SRE-luc plasmid DNA, which encode GALR2 and GALR3, respectively, were mixed in a ratio of 1:1 (75 ng+75 ng)/well, and treated with Effectene reagent (2 μl/well). After 3 h, media were replaced with DMEM media supplemented with 10% FBS. After 24 h, the DMEM media were replaced with FBS-free DMEM media. After 16 h, each constructed spexin-based mutant peptide was further incubated at 37° C. for 6 h. After this stage was finished, cells were washed with PBS and lysed by the addition of 100 μl of lysis buffer (0.1% triton X-100, 0.2M Tris, pH 8.0) at room temperature for 20 min. The luciferase activity was determined using a synergy 2 Multi-mode microplate reader (BioTek, Winooski, Vt., USA) with automatic injection of a luciferin solution (0.5 M MgCl2, 0.1 M ATP, 0.05 M D-luciferin, 1 M KH2PO4, pH 7.8).

[2] = biological target: T2, GALR3 (Homo sapiens, UniProt O60755); experiment: SRE-luc assay in HEK293-Gqi cells expressing GALR3; format: cell-based; conditions: compared with spexin
T2 construct: expressed in transfected cells
T2 sequence (O60755 1-368): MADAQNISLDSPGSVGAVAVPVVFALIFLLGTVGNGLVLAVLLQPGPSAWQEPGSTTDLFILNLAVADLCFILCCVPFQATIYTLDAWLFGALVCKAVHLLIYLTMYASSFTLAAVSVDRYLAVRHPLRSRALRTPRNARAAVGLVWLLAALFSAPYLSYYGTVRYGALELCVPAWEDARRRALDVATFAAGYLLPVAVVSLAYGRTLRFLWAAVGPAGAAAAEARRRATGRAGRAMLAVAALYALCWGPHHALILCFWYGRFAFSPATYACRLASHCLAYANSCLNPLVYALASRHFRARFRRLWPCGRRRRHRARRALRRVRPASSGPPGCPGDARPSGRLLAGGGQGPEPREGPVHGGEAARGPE
From the text: as §1, §2

[3] = tested on: POMC neurons; experiment: Signaling, POMC expression and α-MSH in cultured POMC neurons (Western blotting, mRNA); format: cell-based; conditions: Fmoc sextuple mutant 1 μM, insulin 10 nM
Protocol: An increase in the potency of appetite-regulating brain neurons by administration of the GALR2 agonist was determined by immunohistochemistry (IHC). […] POMC neurons known to regulate appetite in the arcuate nucleus were cultured in vitro, treated with the Fmoc sextuple mutant (1 μM) and 10 nM insulin, washed with PBS, and lysed by the addition of 100 μl of lysis buffer (0.1% triton X-100, 0.2M Tris, pH 8.0) at room temperature for 20 min.
Proteins were extracted from cells and analyzed by Western blotting. […] POMC neurons were treated the GALR2 agonist and mRNA was then extracted. Increases in the number of the POMC neurons and the level of α-MSH were observed (FIGS. 11B to 11E).

[4] = Stability in 100% fetal bovine serum, residual potency via IP3 production in GALR2-expressing cells; conditions: 37° C.; for stability in serum (100% FBS): 0-72 h, IP3 production in GALR2-expressing cells
Protocol: The stability of the spexin-based mutant peptides was investigated. To this end, first, each modified mutant peptide at an initial concentration 10 μM was allowed to react in 100% fetal bovine serum (FBS) at 37° C. for 0, 3, 6, 12, 24, 48, and 72 h. Thereafter, the potencies of the mutant peptide toward GALR2 were determined via inositol 1,4,5-triphosphate (IP3) production in GALR2-expressing cells. For the IP3 assay, cells were seeded in 12-well plates at a density of 2.5×10^5 cells/well and then the next day, cells were treated with a mixture of 1 μg of GALR2-encoding plasmid DNA and Lipofectamine 2000 (Invitrogen). On day following treatment, cells were incubated in M199 media containing 1% FBS, 1% L-glutamine, 1% antibiotic, and myo-^3H inositol 1 μCi/well for 20 h to radioactively label inositol phosphate. After this stage was finished, cells were allowed to react in buffer A (140 mM NaCl, 20 mM Hepes, 4 mM KCl, 8 mM D-glucose, 1 mM MgCl2, 1 mM CaCl2), 1 mg/ml free fatty acid bovine serum albumin, and 10 mM LiCl at pH 7.2) for 30 min. After the mutant peptide was allowed to react in 100% FBS, cells were treated with the mutant peptide for 40 min at 37° C. Media was removed, and reactions were terminated by addition of 1 ml of 10 mM cold formic acid to each well. The plates were allowed to stand at 4° C. for 30 min. Then, the resulting extracts were transferred to 6-mL plastic tubes containing 500 μl AG1-8X anion exchange columns. The tubes were gently mixed with a vortexer, and the supernatants were removed from the labeled mixture. Two washes with 1 ml of triple-distilled water were performed followed by two additional washes with 60 mM ammonium formate/5 mM sodium tetraborate. The radioactively labeled mixture was eluted from the column with 1 ml of 1 M ammonium formate/0.1 M formic acid (1 mL), and 800 μl from the elution were taken from each tube and transferred into scintillation vials. Then, 2 ml of scintillation cocktail solution (Ultima Gold™, Perkin Elmer, Waltham Mass., USA) was added to each sample. The radioactivity of the mixture solution of the radioactively labeled mixture and the scintillation cocktail solution was measured using a TRI carb 2100TR liquid scintillation analyzer (Packard).

| Compound | potency toward GALR2 [1] | potency toward GALR3 [2] | also measured |
| --- | --- | --- | --- |
| [Gly′]: spexin-based mutant peptide, Asn1 replaced with glycine, SEQ ID NO: 12 (GWTPQAMLYLKGAQ; [G1]-SPX) | maintained their potencies toward both receptors without differences from those of spexin | maintained their potencies toward both receptors without differences from those of spexin | – |
| [Pro^13]: spexin-based mutant peptide, proline at position 13, SEQ ID NO: 39 (NWTPQAMLYLKGPQ; [P13]-SPX) | maintained its potency toward GALR2 without a substantial difference | decreased potency toward GALR3 | – |
| [Asn^5]: spexin-based single mutant peptide, asparagine at position 5, SEQ ID NO: 23 (NWTPNAMLYLKGAQ; [N5]-SPX) | maintained its potency toward GALR2 without a substantial difference | decreased potency toward GALR3 | – |
| [Phe^11]: spexin-based mutant peptide, phenylalanine at position 11, SEQ ID NO: 31 (NWTPQAMLYLFGAQ; [F11]-SPX) | maintained its potency toward GALR2 without a substantial difference | decreased potency toward GALR3 | – |
| CC(C)C[C@H](NC(=O)[C@H](C)NC(=O)[C@H](C)NC(=O)[C@H](CC(N)=O)NC(=O)[C@@H](C)NC(=O)[C@@H](NC(=O)[C@H](Cc1c[nH]c2ccccc12)NC(=O)[C@H](CC(N)=O)NC(=O)OCC1c2ccccc2-c2ccccc21)[C@@H](C)O)C(=O)N[C@@H](Cc1ccc(O)cc1)C(=O)N[C@@H](CC(C)C)C(=O)N[C@@H](Cc1ccccc1)C(=O)NCC(=O)N1CCC[C@H]1C(=O)N[C@H](CCC(N)=O)C(N)=O [Fmoc-se] (Fmoc-NWT[dA]NAALYLFGP[dQ]-NH2) | – | – | specificity for GALR2 ([1]; GALR2 versus GALR3): specificity for GALR2; AKT phosphorylation [3]: only the ERK pathway was phosphorylated; ERK phosphorylation [3]: phosphorylated; stability in serum (100% FBS) [4]: increased stability |
| [Leu^11]: spexin-based mutant peptide, leucine at position 11, SEQ ID NO: 32 (NWTPQAMLYLLGAQ; [L11]-SPX) | – | decreased potency toward GALR3 | – |
| pQ: spexin with Asn1 replaced with pyroglutamate, SEQ ID NO: 10 | no influence | no influence | – |
| NWTPNAALYLFGPQ-NH2 (C-terminus assumed) [Qu] | – | – | stability in serum (100% FBS) [4]: rapidly degraded compared to the wild-type spexin |
| NC(=O)NCCC[C@H](N)C(=O)O [Cit] | no influence | no influence | – |
| [dN^1]: spexin-based mutant peptide, Asn1 replaced with D-amino acid, SEQ ID NO: 9 | slightly increased the potency | slightly increased the potency | – |
| Fmoc: spexin modified with Fmoc at position 1, SEQ ID NO: 45 | no influence | no influence | – |
| insulin [reference compound] | – | – | AKT phosphorylation [3]: phosphorylated; ERK phosphorylation [3]: phosphorylated |
| CSCC[C@H](NC(=O)[C@H](C)NC(=O)[C@H](CCC(N)=O)NC(=O)[C@@H]1CCCN1C(=O)[C@@H](NC(=O)[C@H](Cc1c[nH]c2ccccc12)NC(=O)[C@@H](N)CC(N)=O)[C@@H](C)O)C(=O)N[C@@H](CC(C)C)C(=O)N[C@@H](Cc1ccc(O)cc1)C(=O)N[C@@H](CC(C)C)C(=O)N[C@@H](CCCCN)C(=O)NCC(=O)N[C@@H](C)C(=O)N[C@@H](CCC(N)=O)C(N)=O [spexin, reference compound] | – | – | potency toward GALR2 (IP3 production) remaining after reaction in serum ([4]; 100% FBS, initial 10 μM, within 12 h): ≤ 80% |
| [Leu^4]: spexin-based mutant peptide, leucine at position 4, SEQ ID NO: 20 (NWTLQAMLYLKGAQ; [L4]-SPX) | maintained their potencies toward both receptors without differences from those of spexin | maintained their potencies toward both receptors without differences from those of spexin | – |
| alanine | maintained its potency toward GALR2 without a substantial difference | decreased potency toward GALR3 | – |
| [Gly^8]: spexin-based mutant peptide, leucine at position 8 replaced with glycine, SEQ ID NO: 26 (NWTPQAMGYLKGAQ; [G8]-SPX) | decreased potencies | decreased potencies | – |
